# Measurements taken from IntAct's records for PubMed 35512704.
# B1: Mothers against decapentaplegic homolog 4 (Homo sapiens), Q13485 (parent)
# chain: MDNMSITNTPTSNDACLSIVHSLMCHRQGGESETFAKRAIESLVKKLKEKKDELDSLITAITTNGAHPSKCVTIQRTLDGRLQVAGRKGFPHVIYARLWRWPDLHKNELKHVKYCQYAFDLKCDSVCVNPYHYERVVSPGIDLSGLTLQSNAPSSMMVKDEYVHDFEGQPSLSTEGHSIQTIQHPPSNRASTETYSTPALLAPSESNATSTANFPNIPVASTSQPASILGGSHSEGLLQIASGPQPGQQQNGFTGQPATYHHNSTTTWTGSRTAPYTPNLPHHQNGHLQHHPPMPPHPGHYWPVHNELAFQPPISNHPAPEYWCSIAYFEMDVQVGETFKVPSSCPIVTVDGYVDPSGGDRFCLGQLSNVHRTEAIERARLHIGKGVQLECKGEGDVWVRCLSDHAVFVQSYYLDREAGRAPGDAVHKIYPSAYIKVFDLRQCHRQMQQQAATAQAAAAAQAAAVAGNIPGPGSVGGIAPAISLSAAAGIGVDDLRRLCILRMSFVKGWGPDYPRQSIKETPCWIEIHLHRALQLLDEVLHTMPIADPQPLD
# Variants of: B1
# Settings: with ros1_human ROS1, P08922
row,Variant,effect of a mutation on the interaction
1,R361C,with no effect

# Variants of: B1
# Settings: with ks6b1_human RPS6KB1, P23443
row,Variant,effect of a mutation on the interaction
1,R361C,with no effect

# Variants of: B1
# Settings: with runx1_human RUNX1, Q01196
row,Variant,effect of a mutation on the interaction
1,R361C,with no effect

# Variants of: B1
# Settings: with ruvb1_human RUVBL1, Q9Y265
row,Variant,effect of a mutation on the interaction
1,R361C,with no effect

# Variants of: B1
# Settings: with rxra_human RXRA
row,Variant,effect of a mutation on the interaction
1,R361C,with no effect

# Variants of: B1
# Settings: with sdha_human SDHA
row,Variant,effect of a mutation on the interaction
1,R361C,with no effect

# Variants of: B1
# Settings: with setb1_human SETDB1, Q15047
row,Variant,effect of a mutation on the interaction
1,R361C,with no effect

# Variants of: B1
# Settings: with sf3b1_human SF3B1, O75533
row,Variant,effect of a mutation on the interaction
1,R361C,with no effect

# Variants of: B1
# Settings: with skp2_human SKP2, Q13309
row,Variant,effect of a mutation on the interaction
1,R361C,with no effect

# Variants of: B1
# Settings: with smad1_human SMAD1, Q15797
row,Variant,effect of a mutation on the interaction
1,R361C,with no effect

# Variants of: B1
# Settings: with smad2_human SMAD2, Q15796
# smad2_human SMAD2, Q15796, sequence (Q15796 whole entry): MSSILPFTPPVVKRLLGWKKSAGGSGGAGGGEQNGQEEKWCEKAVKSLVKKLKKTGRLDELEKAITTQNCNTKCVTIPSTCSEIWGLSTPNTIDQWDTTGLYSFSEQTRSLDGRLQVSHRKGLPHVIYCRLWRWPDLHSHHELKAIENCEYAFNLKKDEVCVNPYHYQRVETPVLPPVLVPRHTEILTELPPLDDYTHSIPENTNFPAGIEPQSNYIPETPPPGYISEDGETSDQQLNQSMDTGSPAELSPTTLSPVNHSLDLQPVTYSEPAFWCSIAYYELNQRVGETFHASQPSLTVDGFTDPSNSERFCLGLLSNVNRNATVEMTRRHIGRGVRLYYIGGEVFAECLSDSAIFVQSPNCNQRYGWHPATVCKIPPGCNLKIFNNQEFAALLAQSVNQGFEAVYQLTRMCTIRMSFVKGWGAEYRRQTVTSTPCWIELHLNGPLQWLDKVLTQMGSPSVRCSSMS
row,Variant,effect of a mutation on the interaction
1,R361C,with no effect

# Variants of: B1
# Settings: with smad3_human SMAD3, P84022
# smad3_human SMAD3, P84022, sequence (P84022 whole entry, looked up): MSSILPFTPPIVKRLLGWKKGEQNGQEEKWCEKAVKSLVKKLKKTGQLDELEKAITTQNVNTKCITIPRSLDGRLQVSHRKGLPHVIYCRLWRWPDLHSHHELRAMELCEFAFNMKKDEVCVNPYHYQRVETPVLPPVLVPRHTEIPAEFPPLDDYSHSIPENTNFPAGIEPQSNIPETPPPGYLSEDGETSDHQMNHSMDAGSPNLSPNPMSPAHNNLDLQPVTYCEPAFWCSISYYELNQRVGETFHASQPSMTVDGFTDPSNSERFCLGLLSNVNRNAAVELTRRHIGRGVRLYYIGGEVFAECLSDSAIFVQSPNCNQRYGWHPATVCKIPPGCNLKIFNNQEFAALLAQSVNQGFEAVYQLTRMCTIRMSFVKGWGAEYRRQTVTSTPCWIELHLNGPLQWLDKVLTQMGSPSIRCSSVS
row,Variant,effect of a mutation on the interaction
1,R361C,with no effect

# Variants of: B1
# Settings: with smca4_human SMARCA4, P51532
# smca4_human SMARCA4, P51532, sequence (P51532 whole entry): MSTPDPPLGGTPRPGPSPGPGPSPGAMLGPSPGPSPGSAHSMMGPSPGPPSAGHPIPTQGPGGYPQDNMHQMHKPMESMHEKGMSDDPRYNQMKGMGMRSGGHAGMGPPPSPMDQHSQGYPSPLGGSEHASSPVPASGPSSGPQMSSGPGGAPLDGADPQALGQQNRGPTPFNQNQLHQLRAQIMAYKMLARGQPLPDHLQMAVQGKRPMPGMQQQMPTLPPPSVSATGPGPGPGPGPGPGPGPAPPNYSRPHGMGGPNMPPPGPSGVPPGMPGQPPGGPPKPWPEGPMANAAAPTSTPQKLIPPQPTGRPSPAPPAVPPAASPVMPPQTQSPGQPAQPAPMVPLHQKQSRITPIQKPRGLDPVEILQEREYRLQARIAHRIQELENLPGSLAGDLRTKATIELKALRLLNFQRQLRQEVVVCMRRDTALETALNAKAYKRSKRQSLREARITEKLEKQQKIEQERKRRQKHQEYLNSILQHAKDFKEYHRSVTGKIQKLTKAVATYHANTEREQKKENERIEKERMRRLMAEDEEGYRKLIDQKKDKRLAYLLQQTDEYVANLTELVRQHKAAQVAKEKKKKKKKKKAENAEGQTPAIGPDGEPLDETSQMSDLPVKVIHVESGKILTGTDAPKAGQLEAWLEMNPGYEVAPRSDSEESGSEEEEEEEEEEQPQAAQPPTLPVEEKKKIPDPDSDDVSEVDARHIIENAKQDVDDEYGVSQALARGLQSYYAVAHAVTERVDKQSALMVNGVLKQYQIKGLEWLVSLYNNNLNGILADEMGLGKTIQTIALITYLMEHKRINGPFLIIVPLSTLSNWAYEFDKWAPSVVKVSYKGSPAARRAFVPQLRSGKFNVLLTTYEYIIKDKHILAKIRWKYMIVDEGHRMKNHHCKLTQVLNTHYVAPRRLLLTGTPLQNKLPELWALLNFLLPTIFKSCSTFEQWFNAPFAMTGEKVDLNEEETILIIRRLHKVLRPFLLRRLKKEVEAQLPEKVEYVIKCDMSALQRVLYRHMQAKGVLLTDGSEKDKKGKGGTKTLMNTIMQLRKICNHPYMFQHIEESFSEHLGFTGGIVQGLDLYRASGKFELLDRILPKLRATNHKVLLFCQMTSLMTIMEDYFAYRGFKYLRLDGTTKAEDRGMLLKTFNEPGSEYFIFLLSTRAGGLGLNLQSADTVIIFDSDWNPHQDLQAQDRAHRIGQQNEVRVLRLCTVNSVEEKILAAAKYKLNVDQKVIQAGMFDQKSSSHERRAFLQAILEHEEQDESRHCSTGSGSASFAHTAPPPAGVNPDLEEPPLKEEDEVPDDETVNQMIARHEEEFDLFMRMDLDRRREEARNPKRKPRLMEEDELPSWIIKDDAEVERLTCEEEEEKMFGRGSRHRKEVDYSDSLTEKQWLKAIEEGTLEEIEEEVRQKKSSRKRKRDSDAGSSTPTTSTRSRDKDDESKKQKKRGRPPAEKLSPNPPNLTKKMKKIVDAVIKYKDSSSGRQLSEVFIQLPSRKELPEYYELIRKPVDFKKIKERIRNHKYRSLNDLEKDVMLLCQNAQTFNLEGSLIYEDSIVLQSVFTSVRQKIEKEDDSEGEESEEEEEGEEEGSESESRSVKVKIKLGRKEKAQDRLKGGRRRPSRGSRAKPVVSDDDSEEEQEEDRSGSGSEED
row,Variant,effect of a mutation on the interaction
1,R361C,with no effect

# Variants of: B1
# Settings: with snf5_human SMARCB1, Q12824
row,Variant,effect of a mutation on the interaction
1,R361C,with no effect

# Variants of: B1
# Settings: with smo_human SMO
row,Variant,effect of a mutation on the interaction
1,R361C,with no effect

# Variants of: B1
# Settings: with socs1_human SOCS1, O15524
row,Variant,effect of a mutation on the interaction
1,R361C,with no effect

# Variants of: B1
# Settings: with sox10_human SOX10, P56693
row,Variant,effect of a mutation on the interaction
1,R361C,with no effect

# Variants of: B1
# Settings: with sox2_human SOX2, P48431
row,Variant,effect of a mutation on the interaction
1,R361C,with no effect

# Variants of: B1
# Settings: with sox3_human SOX3, P41225
# sox3_human SOX3, P41225, sequence (P41225 whole entry): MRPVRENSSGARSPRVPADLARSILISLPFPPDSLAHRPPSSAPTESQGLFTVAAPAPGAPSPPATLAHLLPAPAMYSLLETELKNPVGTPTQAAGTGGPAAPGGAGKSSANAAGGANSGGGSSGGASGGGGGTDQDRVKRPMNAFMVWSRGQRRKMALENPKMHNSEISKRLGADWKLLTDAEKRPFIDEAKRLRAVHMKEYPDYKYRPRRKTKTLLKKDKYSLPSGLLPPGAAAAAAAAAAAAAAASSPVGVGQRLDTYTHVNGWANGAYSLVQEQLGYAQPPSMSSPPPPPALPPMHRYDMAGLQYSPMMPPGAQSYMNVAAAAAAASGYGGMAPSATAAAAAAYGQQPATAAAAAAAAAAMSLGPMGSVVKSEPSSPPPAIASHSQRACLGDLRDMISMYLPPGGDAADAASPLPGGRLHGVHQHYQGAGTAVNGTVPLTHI
row,Variant,effect of a mutation on the interaction
1,R361C,with no effect

# Variants of: B1
# Settings: with sox4_human SOX4, Q06945
row,Variant,effect of a mutation on the interaction
1,R361C,with no effect

# Variants of: B1
# Settings: with sox9_human SOX9, P48436
row,Variant,effect of a mutation on the interaction
1,R361C,with no effect

# Variants of: B1
# Settings: with spop_human SPOP
row,Variant,effect of a mutation on the interaction
1,R361C,with no effect

# Variants of: B1
# Settings: with src_human SRC
row,Variant,effect of a mutation on the interaction
1,R361C,with no effect

# Variants of: B1
# Settings: with stat3_human STAT3, P40763
row,Variant,effect of a mutation on the interaction
1,R361C,with no effect

# Variants of: B1
# Settings: with stk38_human STK38, Q15208
row,Variant,effect of a mutation on the interaction
1,R361C,with no effect

# Variants of: B1
# Settings: with ksyk_human SYK
row,Variant,effect of a mutation on the interaction
1,R361C,with no effect

# Variants of: B1
# Settings: with eloc_human ELOC
row,Variant,effect of a mutation on the interaction
1,R361C,with no effect

# Variants of: B1
# Settings: with tfe2_human TCF3, P15923
# tfe2_human TCF3, P15923, sequence (P15923 whole entry): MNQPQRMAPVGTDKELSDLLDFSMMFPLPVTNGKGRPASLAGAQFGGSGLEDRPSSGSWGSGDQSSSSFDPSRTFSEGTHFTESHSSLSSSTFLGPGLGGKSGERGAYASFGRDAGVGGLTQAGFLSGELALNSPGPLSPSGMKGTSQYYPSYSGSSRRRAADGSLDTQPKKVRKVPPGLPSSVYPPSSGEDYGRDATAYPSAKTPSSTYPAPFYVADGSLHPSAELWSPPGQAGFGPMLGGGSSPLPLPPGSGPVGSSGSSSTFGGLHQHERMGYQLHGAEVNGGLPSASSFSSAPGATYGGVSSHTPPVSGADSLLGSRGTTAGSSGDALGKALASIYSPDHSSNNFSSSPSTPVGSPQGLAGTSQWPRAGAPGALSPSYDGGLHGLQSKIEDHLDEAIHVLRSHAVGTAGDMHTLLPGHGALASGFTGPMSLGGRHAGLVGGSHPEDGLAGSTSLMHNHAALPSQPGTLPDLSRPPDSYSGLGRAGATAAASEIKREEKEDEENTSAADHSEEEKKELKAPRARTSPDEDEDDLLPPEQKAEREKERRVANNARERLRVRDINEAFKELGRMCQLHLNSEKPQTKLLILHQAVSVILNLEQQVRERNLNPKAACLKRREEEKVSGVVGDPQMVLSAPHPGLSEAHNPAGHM
row,Variant,effect of a mutation on the interaction
1,R361C,with no effect

# Variants of: B1
# Settings: with tead1_human TEAD1, P28347
row,Variant,effect of a mutation on the interaction
1,R361C,with no effect

# Variants of: B1
# Settings: with tead2_human TEAD2, Q15562
row,Variant,effect of a mutation on the interaction
1,R361C,with no effect

# Variants of: B1
# Settings: with tead3_human TEAD3, Q99594
row,Variant,effect of a mutation on the interaction
1,R361C,with no effect

# Variants of: B1
# Settings: with tgfr2_human TGFBR2, P37173
# tgfr2_human TGFBR2, P37173, sequence (P37173 whole entry): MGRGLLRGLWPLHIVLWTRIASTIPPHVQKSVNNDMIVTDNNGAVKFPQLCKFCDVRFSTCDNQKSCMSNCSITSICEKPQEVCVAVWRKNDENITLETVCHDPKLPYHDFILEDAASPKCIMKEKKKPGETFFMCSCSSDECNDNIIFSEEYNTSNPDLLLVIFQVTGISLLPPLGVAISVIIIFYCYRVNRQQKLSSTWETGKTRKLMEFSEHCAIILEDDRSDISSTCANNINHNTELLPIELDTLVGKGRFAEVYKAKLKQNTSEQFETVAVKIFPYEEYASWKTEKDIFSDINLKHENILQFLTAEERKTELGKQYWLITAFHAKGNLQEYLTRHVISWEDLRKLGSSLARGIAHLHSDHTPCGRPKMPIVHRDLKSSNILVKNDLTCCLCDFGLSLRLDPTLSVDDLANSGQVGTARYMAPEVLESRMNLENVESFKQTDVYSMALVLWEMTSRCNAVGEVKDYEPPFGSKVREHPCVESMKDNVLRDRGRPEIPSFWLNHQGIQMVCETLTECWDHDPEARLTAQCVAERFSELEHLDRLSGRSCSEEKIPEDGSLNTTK
row,Variant,effect of a mutation on the interaction
1,R361C,with no effect

# Variants of: B1
# Settings: with tnr14_human TNFRSF14, Q92956
row,Variant,effect of a mutation on the interaction
1,R361C,with no effect

# Variants of: B1
# Settings: with tpx2_human TPX2, Q9ULW0
row,Variant,effect of a mutation on the interaction
1,R361C,with no effect

# Variants of: B1
# Settings: with trrap_human TRRAP
row,Variant,effect of a mutation on the interaction
1,R361C,with no effect

# Variants of: B1
# Settings: with tsc2_human TSC2, P49815
row,Variant,effect of a mutation on the interaction
1,R361C,with no effect

# Variants of: B1
# Settings: with tshr_human TSHR
row,Variant,effect of a mutation on the interaction
1,R361C,with no effect

# Variants of: B1
# Settings: with wt1_human WT1, P19544
# wt1_human WT1, P19544, sequence (P19544 whole entry): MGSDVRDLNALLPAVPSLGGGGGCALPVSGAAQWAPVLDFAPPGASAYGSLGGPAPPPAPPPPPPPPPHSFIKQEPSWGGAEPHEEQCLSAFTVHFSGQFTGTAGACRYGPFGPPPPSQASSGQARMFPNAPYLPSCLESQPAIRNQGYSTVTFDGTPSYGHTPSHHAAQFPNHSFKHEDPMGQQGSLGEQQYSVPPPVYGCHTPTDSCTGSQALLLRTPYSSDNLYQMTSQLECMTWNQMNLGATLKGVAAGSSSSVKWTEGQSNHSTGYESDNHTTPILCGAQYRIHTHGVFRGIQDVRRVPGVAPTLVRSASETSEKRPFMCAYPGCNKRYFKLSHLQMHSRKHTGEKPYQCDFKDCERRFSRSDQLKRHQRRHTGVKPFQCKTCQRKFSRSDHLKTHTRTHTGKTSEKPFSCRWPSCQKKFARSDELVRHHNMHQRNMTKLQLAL
row,Variant,effect of a mutation on the interaction
1,R361C,with no effect

# Variants of: B1
# Settings: with wwtr1_human WWTR1, Q9GZV5
row,Variant,effect of a mutation on the interaction
1,R361C,with no effect

# Variants of: B1
# Settings: with xpo1_human XPO1, O14980
row,Variant,effect of a mutation on the interaction
1,R361C,with no effect

# Variants of: B1
# Settings: with 1433b_human YWHAB
row,Variant,effect of a mutation on the interaction
1,R361C,with no effect

# Variants of: B1
# Settings: with 1433e_human YWHAE
row,Variant,effect of a mutation on the interaction
1,R361C,with no effect

# Variants of: B1
# Settings: with 1433z_human YWHAZ
row,Variant,effect of a mutation on the interaction
1,R361C,with no effect

# Variants of: B1
# Settings: with gata2_human GATA2, P23769
row,Variant,effect of a mutation on the interaction
1,R361C,decreasing interaction strength

# Variants of: B1
# Settings: with smad3_human SMAD3, P84022
# Remark: another data set of the same source
row,Variant,effect of a mutation on the interaction
1,R361C,decreasing interaction strength

# Variants of: B1
# Settings: with cdk6_human CDK6, Q00534
# cdk6_human CDK6, Q00534, sequence (Q00534 whole entry): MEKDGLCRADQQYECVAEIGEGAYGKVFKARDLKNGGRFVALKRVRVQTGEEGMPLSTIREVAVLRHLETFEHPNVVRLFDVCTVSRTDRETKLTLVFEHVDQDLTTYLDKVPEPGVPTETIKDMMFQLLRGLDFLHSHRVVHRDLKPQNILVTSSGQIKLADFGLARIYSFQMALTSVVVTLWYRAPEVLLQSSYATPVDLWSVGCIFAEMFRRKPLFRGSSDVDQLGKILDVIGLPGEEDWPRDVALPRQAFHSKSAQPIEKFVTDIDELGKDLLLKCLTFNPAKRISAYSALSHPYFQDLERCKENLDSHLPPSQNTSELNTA
row,Variant,effect of a mutation on the interaction
1,R361C,decreasing interaction strength
